{
  "source": "paper PMC13542264",
  "key": {"[1]": {"molecular_target": "gephyrin, endogenous in mouse brain (mouse (endogenous in brain)) (UniProt Q8BUV3)", "assay": "non-reducing SDS-PAGE and Western blot; brain lysates of mice perfused with NEM-containing PBS; SDS sample buffer with 5 mM DTT or without reductant; shows only multimers that survive SDS"}, "[2]": {"molecular_target": "His-gephyrin, rat gephyrin P1, wild type, full length (rat)", "assay": "SEC; analytical Superose 6 increase 5/10, 4 °C, 50 mM Tris/HCl, 300 mM NaCl pH 7.4; protein reduced with 1 mM TCEP, also the oxidised peak collected and re-reduced"}, "[3]": {"molecular_target": "GCN4-GlyR, GCN4 receptor model for the glycine receptor β subunit", "assay": "co-sedimentation; sedimentation assay of in vitro phase separation: proteins mixed in 25 mM Tris pH 7.4, 150 mM NaCl, 10 min 25 °C, 17,000 x g 10 min 4 °C; pellet and supernatant on Coomassie gels; gephyrin oxidised or reduced"}},
  "data": [
    {"substance": "gephyrin, endogenous in mouse brain (from UniProt Q8BUV3 1-769) (natural protein)", "values": [
      {"measurement": "fractional abundance of multimeric gephyrin", "setting": "[1]", "value": 20, "unit": "%"}
    ]},
    {"substance": "His-gephyrin, rat gephyrin P1, wild type, full length (natural protein)", "values": [
      {"measurement": "stoichiometry N", "setting": "[2]", "value": 6},
      {"measurement": "percent of gephyrin in the pellet fraction", "setting": "[3]", "value": 60, "unit": "%"}
    ]}
  ]
}
